Measurements published in patent US20240247250.
Read-outs that look alike come from different tables or passages of the source.

How the values were obtained:
[1] = biological target: tRNA-guanine transglycosylase (TGT) (Escherichia coli) (UniProt P0A847); settings: urea PAGE shift; best of composite hairpins
[2] = biological target: tRNA-guanine transglycosylase (TGT) (Escherichia coli) (UniProt P0A847); settings: urea PAGE shift

Sequence of tRNA-guanine transglycosylase (TGT) (Escherichia coli) (P0A847 whole entry): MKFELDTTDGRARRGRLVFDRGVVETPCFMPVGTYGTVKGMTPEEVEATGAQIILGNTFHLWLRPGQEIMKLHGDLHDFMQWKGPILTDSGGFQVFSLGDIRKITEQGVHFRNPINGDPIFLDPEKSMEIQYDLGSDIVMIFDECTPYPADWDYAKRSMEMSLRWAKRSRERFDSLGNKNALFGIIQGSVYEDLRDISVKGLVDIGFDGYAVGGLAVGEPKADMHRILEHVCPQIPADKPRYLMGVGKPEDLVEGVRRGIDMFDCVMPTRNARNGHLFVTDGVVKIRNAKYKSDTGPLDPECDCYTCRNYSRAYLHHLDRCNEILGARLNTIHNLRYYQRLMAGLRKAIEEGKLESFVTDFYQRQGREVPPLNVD

Substance	activity [2] [% labeled]	further results
His stem-Asp loop hairpin		activity [1]: > 50 % labeled
His 17 nt DNA hairpin	40	
Asp 17 nt DNA hairpin	40	
Tyr 17 nt DNA hairpin		activity ([2]; printed as ~-5%): 5 % labeled
